B1: E3 ubiquitin-protein ligase NHLRC1 (Homo sapiens), Q6VVB1 (parent)
chain: MAAEASESGPALHELMREAEISLLECKVCFEKFGHRQQRRPRNLSCGHVVCLACVAALAHPRTLALECPFCRRACRGCDTSDCLPVLHLIELLGSALRQSPAAHRAAPSAPGALTCHHTFGGWGTLVNPTGLALCPKTGRVVVVHDGRRRVKIFDSGGGCAHQFGEKGDAAQDIRYPVDVTITNDCHVVVTDAGDRSIKVFDFFGQIKLVIGGQFSLPWGVETTPQNGIVVTDAEAGSLHLLDVDFAEGVLRRTERLQAHLCNPRGVAVSWLTGAIAVLEHPLALGTGVCSTRVKVFSSSMQLVGQVDTFGLSLYFPSKITASAVTFDHQGNVIVADTSGPAILCLGKPEEFPVPKPMVTHGLSHPVALTFTKENSLLVLDTASHSIKVYKVDWG
partner: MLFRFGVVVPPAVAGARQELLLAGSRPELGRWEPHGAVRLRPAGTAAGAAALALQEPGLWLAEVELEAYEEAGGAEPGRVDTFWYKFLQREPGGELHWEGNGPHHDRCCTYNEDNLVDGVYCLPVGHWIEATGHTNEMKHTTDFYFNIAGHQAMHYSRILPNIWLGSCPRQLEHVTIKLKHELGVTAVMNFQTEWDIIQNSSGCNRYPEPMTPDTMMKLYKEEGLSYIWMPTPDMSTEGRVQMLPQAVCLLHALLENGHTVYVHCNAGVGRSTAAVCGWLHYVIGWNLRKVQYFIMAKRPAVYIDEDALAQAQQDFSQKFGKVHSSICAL
B2: Laforin (Mus musculus), Q9WUA5 (parent)
chain: B1 partner
partner: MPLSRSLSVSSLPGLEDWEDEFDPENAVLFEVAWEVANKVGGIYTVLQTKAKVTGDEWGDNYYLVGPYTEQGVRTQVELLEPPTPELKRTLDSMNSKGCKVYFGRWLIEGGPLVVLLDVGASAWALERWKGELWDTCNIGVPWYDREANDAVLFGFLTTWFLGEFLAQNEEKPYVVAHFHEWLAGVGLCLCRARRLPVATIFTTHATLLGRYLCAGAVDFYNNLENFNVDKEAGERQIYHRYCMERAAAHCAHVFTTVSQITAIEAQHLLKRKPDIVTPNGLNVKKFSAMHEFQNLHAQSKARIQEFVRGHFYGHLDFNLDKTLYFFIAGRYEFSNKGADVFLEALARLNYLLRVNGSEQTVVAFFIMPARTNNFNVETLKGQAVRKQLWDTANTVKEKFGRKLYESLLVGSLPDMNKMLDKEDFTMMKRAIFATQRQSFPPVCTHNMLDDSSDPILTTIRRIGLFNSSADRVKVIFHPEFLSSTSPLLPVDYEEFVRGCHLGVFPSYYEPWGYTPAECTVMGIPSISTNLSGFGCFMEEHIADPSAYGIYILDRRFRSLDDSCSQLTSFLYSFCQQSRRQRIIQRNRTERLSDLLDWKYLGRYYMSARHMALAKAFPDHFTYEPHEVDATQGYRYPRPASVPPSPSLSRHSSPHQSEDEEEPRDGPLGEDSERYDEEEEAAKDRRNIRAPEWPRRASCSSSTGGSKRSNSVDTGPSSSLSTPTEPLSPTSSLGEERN

Variants of: B1
Details: with epm2a_mouse Epm2a

effect of a mutation on the interaction | Variant
disrupting interaction | D233A

Variants of: B1
Details: with epm2a_mouse Epm2a
Remark: another data set of the same source

effect of a mutation on the interaction | Variant
disrupting interaction | P264H

Variants of: B1
Details: with epm2a_mouse Epm2a
Remark: another data set of the same source

effect of a mutation on the interaction | Variant
disrupting interaction | I198N

Variants of: B1
Details: with epm2a_mouse Epm2a
Remark: another data set of the same source

effect of a mutation on the interaction | Variant
decreasing interaction | Q302P

Variants of: B1
Details: with epm2a_mouse Epm2a
Remark: another data set of the same source

effect of a mutation on the interaction | Variant
disrupting interaction | E280K

Variants of: B1
Details: with epm2a_mouse Epm2a
Remark: another data set of the same source

effect of a mutation on the interaction | Variant
decreasing interaction | C26S

Variants of: B1
Details: with epm2a_mouse Epm2a
Remark: another data set of the same source

effect of a mutation on the interaction | Variant
disrupting interaction | D146N

Variants of: B1
Details: with epm2a_mouse Epm2a
Remark: another data set of the same source

effect of a mutation on the interaction | Variant
decreasing interaction | L87P

Variants of: B2
Details: with gys1_mouse Gys1, Q9Z1E4

effect of a mutation on the interaction | Variant
increasing interaction | C265S

Source: IntAct's records for PubMed 22578008
